What was measured:
[1] = molecular target: v2.3 BE-VLP gag-ABE8e fusion
[2] = molecular target: v2.4 BE-VLP gag-ABE8e fusion
[3] = molecular target: v2.1 BE-VLP gag-ABE8e fusion
[4] = molecular target: v2.2 BE-VLP gag-ABE8e fusion

B1: MMLV protease (protein)
chain: TLDDQGGQGQEPPPEPRITLKVGGQPVTFLVDTGAQHSVLTQNPGPLSDKSAWVQGATGGKRYRWTTDRKVHLATGKVTHSFLHVPDCPYPLLGRDLLTKLKAQIHFEGSGAQVMGPMGQPLQVL
- fraction of cleaved ABE8e versus full-length gag-ABE8e present in purified BE-VLPs (western blot) [1]: the v2.4 linker is cleaved more efficiently than the v2.1 and v2.2 linkers, but less efficiently than the v2.3 linker
- fraction of cleaved ABE8e versus full-length gag-ABE8e present in purified BE-VLPs (western blot) [2]: the v2.4 linker is cleaved more efficiently than the v2.1 and v2.2 linkers, but less efficiently than the v2.3 linker
- fraction of cleaved ABE8e versus full-length gag-ABE8e present in purified BE-VLPs (western blot) [3]: the v2.4 linker is cleaved more efficiently than the v2.1 and v2.2 linkers, but less efficiently than the v2.3 linker
- fraction of cleaved ABE8e versus full-length gag-ABE8e present in purified BE-VLPs (western blot) [4]: the v2.4 linker is cleaved more efficiently than the v2.1 and v2.2 linkers, but less efficiently than the v2.3 linker
